# Assay: yeast display, Sf9 membrane polyspecificity reagent, FACS + sequencing; frameworks hold sequencing errors
# Outline: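 Nanobodies from a synthetic yeast display library (Saccharomyces cerevisiae BJ5465), induced 36–48 hours with galactose, were stained 1 hour at 4 °C with 10% biotinylated, detergent-solubilized Sf9 membrane reagent, enriched on streptavidin microbeads, then FACS-sorted. Anti-HA (expression) and streptavidin (reagent binding) fluorescence set low and high (top ~1%) gates. Polyreactivity labels come from the gate of origin. Genes were colony-PCR amplified, MiSeq 2 × 250 sequenced and filtered by CDR length.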
row,Sequence,polyreactivity (PSR sort gate)
1,QVQLVESGGGLVQAGGSLRLSCAASGITFTLYAMGWYRQAPGKERELVASISWSGGSTYYADSVKGRFTISRDNAKNTVYLQMNSLKPEDTAVYYCNAVYARKYYYSHGYDYWGQGTQVTVSS,high polyreactivity
2,QVQLVESGGGLVQAGGSLRLSCAASGITFTPYAMGWYRQAPGKERELVAAISWRGGSTYYADSVKGRFTISRDNAKNTVYLQMNSLKPEDTAVYYCAKDGRGYGRYSRYYTGDYWGQGTQVTVST,low polyreactivity
3,QVQLVESGGGLVQAGGSLRLSCAASGITFTRNAMGWYRQAPGKERELVAAISRRSGSTYYADSVKGRFTISRDNAKNTVYLQMNSLKPEDTAVYYCAATYSVHFVRYGYWGQGTQVTVSS,high polyreactivity
4,QVQLVESGGGLVQAGGSLRLSCAASGITFTRYTKGWYRQAPGKERELVAAIRGSGGSTYYADSVKGRFTISRDNAKNTVYLEMNSLKAEDTAVYFCAADKYLYGRLTRNFHYYYWGLGTQVTVSS,low polyreactivity
5,QVQLVESGGGLVQAGGSLRLSCAASGITFTSYAMGWYRQAPGKERELVAAISTRVGRTYYADSVKGRFTISRDNAKNTVYLQMNSLKPEDTAVYYCAADRISQGYSTYNYWGQGTQVTVSS,high polyreactivity
6,QVQLVESGGGLVQAGGSLRLSCAASGITFTSYVMGWYRQAPGKERELVAAIRWSGGRTYYADSVKGRFTISRDNAKNTDYLQMNTLKPAATAVYYCNRVTRSHVDYWGQGTQVTVSS,high polyreactivity
7,QVQLVESGGGLVQAGGSLRLSCAASGITFTVNAMGWYRQAPGKERELVAAISNDGSTYYADSVKGRFTISRDNAKNTVYLQMNSLKPEDTAVYYCAADTWDDFGPYGYDYWGQGTQVTVSS,low polyreactivity
8,QVQLVESGGGLVQAGGSLRLSCAASGITFTYYAMGWYRPAPGKERELVAAITDRGGRTYYADSVKWRFTISRDNAKKTVYLQMNRLNPDDTAVYFCNTVPTSNSRTSVYFPYYYWGQGTQVTVSS,high polyreactivity
9,QVQLVESGGGLVQAGGSLRLSCAASGITFVAYAMGWYRQAPGKERELVAAISGGGGSTYYADSVKGRFTISRDNAKNTVYLQMNSLKPEDTAVYYCAGVYTYPLGYYHYTYDYWGQGTQVTVSS,low polyreactivity
10,QVQLVESGGGLVQAGGSLRLSCAASGITFVDYDMGWYRQAPGKERELVAAISWSGGSTYYADSVKGRFTISRDNAKNTVYLQMNSLKPEDTAVYYFAAEVIWWVREYYYWGQGTQVTVSS,low polyreactivity
11,QVQLVESGGGLVQAGGSLRLSCAASGITFVGNDMGWYRQAPGKERELVATISSSGTRTYYADSVKGRFTISRDNAKNTVYLQMNSLKQEDTAVYYCAARWRSYITYWFDYWGQGTQVTVSS,low polyreactivity
12,QVQLVESGGGLVQAGGSLRLSCAASGITFVHYAMGWYIQAPGKERELVAAISEDGGSTYYADSVKGRFTISRDNAKNTVYLQMNSLKPEDTAVYYCNTYSGLWPYWRLYDYWGQGTQVTVSS,high polyreactivity
13,QVQLVESGGGLVQAGGSLRLSCAASGITFVLNVMGWNRQAPGKERELVAAISASGGRTYYADSVKGRFTISRDNAKHTVYLQMNSLKPEDTAVYYCNAVLPRYTFRSGVFEYDWGQGTQVTVSS,high polyreactivity
14,QVQLVESGGGLVQAGGSLRLSCAASGITFVNYAMGWYRQAPGKERELVAAISGDGGNTYYADSVKGRFTISRDNAKNTVYLQMNSLKPEDTAVYYCAATPYLYRLYGYWYRPYYYWGQGTQVTVSS,high polyreactivity
15,QVQLVESGGGLVQAGGSLRLSCAASGITFVQYAMGWYRQAPGKERELVAAIRRGGSTSYADSVKGRFTISRDNAKNTVYLQMNSLKPEDTAVYYCARRYVWPITPLDVEYWGQGTQVTVSS,low polyreactivity
16,QVQLVESGGGLVQAGGSLRLSCAASGITFVRYAMAWYRQAPGKEREFVAAINSIVGRTYYADSVKGRFTISRDNAKNTVYLQMNSLKPEDTAVYYCAADSNVRFGMDYWGQGTQVTVSS,low polyreactivity
17,QVQLVESGGGLVQAGGSLRLSCAASGITFVRYAMGWYRQAPGKEREFVARISRSGASTYYADSVKGRFTISRDNAKNTVYLQMNSLKPEDTAVYYCNKVYISREDYWGQGTQVTVSS,high polyreactivity
18,QVQLVESGGGLVQAGGSLRLSCAASGITFVRYAMGWYRQAPGKERELVAAINFSGGNTYYADSVKGRFTISRDNAKNTVYLQMNSLKPEDTAVYYCAAKRQYKRSRMYYWGQGTQVTVSS,high polyreactivity
19,QVQLVESGGGLVQAGGSLRLSCAASGITFVYNAMGWYRQAPGKERELVAAIDFGAGSTYYADSVKGRFTISRDNAKNTVYLPMNSLKPEDTAVYYCAAGAARWYWPYDYWGQGTQVTVSS,low polyreactivity
20,QVQLVESGGGLVQAGGSLRLSCAASGITFWAYAMGWYRPAPGKARELVAAITSGGSTNYADSVKGRFTISRDNAKNTVYLQLNSLKPEDTAVYYCAADWAYYSTALDYWGQGTQVTVSS,low polyreactivity
21,QVQLVESGGGLVQAGGSLRLSCAASGITFWDYAMGWYRQAPGKERELVAGISTRGGSTYYADSVKGRFTISRDNEKNTVYLQMNSLKPEDTAVYYCATDDPLSQINEQGMDYWGQGTQVTVSS,low polyreactivity
22,QVQLVESGGGLVQAGGSLRLSCAASGITFWDYAMGWYRQAPGKERELVAGITSRGGSTYYADSVKGRFTISRDNAKNTVYLQMNSLKPADTGVNSCNAYRLHSRRYYYWGQGTQVTVSS,low polyreactivity

row,Sequence,polyreactivity (PSR sort gate)
1,QVQLVESGGGLVQAGGSLRLSCAASGITFWGYAMGWYRQAPGKEREFVARINWSGGRTYYAESVKGRFTISRDNAKNTVYLQMNSLKPEDTAVYYCAATSLIYCYRTYYYWGQGTQVTVSS,high polyreactivity
2,QVQLVESGGGLVQAGGSLRLSCAASGITFWGYAMGWYRQAPGKERELVAAISKTGGSTYYADSVKGRFTISRDNAKNTVYLQMNSLKPEDTAVYYCNTVTANGDFGYWGQGTQVTVSS,low polyreactivity
3,QVQLVESGGGLVQAGGSLRLSCAASGITFWGYVMGWYRQAPGKERELVAAISSSGGRTYYADSVKGRFTISRDNAKNTVYLQMNSLKPEDTAVYYCAARFLYANRYSVDYDYWGQGTQVTVSS,high polyreactivity
4,QVQLVESGGGLVQAGGSLRLSCAASGITFWLYAMGWYRQAPGKERELVAAITSGGSTTYADSVKGRFTISRDNAKNTVFLQMYSLKPEDSAVYYCNAEYQDWFGRLDYWGQGTQVTVSS,high polyreactivity
5,QVQLVESGGGLVQAGGSLRLSCAASGITFWLYAMGWYRQAPGKERELVAGIDNGGSTTYADSVKGRFTISRDNAKNTVYLQMNILKPEDTAVYYCAATFEWDPVYPYNGFIYDYWGQGTQVTVSS,high polyreactivity
6,QVQLVESGGGLVQAGGSLRLSCAASGITFWRYAMGWYRQAPGKERELVAAINSGGGTKFADSVKGRFTISRDNAKNTVYLQMNSLKPEDTAVYYCAAKYVFTLHRYDYWGQGTQVTVSS,high polyreactivity
7,QVQLVESGGGLVQAGGSLRLSCAASGITFWRYAMGWYRQAPGKERELVAAIRWSGSTYADSVKGRFTISRDNAKNTVYLQMNSLKPEDTAVYYCAAYPIGGYHDMDYWGQGTQVTVSS,high polyreactivity
8,QVQLVESGGGLVQAGGSLRLSCAASGITFWYYAMGWYRQAPGKERELVARIRRSGGSTYYADSVKGRFTISRDNAKNTVYLQMNSLKPEDTAVYYCAAEPRWTAVYQGAERFYYWGQGTQVTVSS,high polyreactivity
9,QVQLVESGGGLVQAGGSLRLSCAASGITFWYYAMGWYRQAPGKERELVAVISRGGSTYYADSVKGRFTISRDNAKNTVYLQMNSLKPEDTAVYYCAADVSVSGYYYWGQGTQVTVSS,high polyreactivity
10,QVQLVESGGGLVQAGGSLRLSCAASGITFYANAMGWYRQAPGKERELVATISYRGGSTYYADSVKGRFTISRDNAKNTVYLQMNSLKPEDTAVYYCAARRRRTSNTRVEHNYWGQGTQVTVSS,high polyreactivity
11,QVQLVESGGGLVQAGGSLRLSCAASGITFYANTMGWYRQAPGKERELVAAISGIGGSTYYADSVMGRFAISRDNAKNTVYLQMNSLKPEDTAVYYCNADVYYFLFGTFDYWGQGTQVTVSS,low polyreactivity
12,QVQLVESGGGLVQAGGSLRLSCAASGITFYAYAMGWYRQAPGKERELVAAITSSGSSTYYADSVKGRFTISRDNAKNTVYLQMISLKPEDSAVYYCAARRYRSVRNDYWGQGTQVTVSS,high polyreactivity
13,QVQLVESGGGLVQAGGSLRLSCAASGITFYDYAMGWYRQAPGKERELVAAISDSGGITYYADSVKGRFTISRDNAKNTVYLQMNSLKPEDTAVYYCNAKSVRRERYKFDYWGQGTQVTVSS,high polyreactivity
14,QVQLVESGGGLVQAGGSLRLSCAASGITFYDYAMGWYRQAPGKERELVAAISFSGSRTYYADSVKGRFTISRDHAKNTVSLQMNSLKPDDTAVYYCAASQASNYKIYDYWGQGTQVTVSS,high polyreactivity
15,QVQLVESGGGLVQAGGSLRLSCAASGITFYDYDMGWYRQAPGKERELVAAINSGASTSYADSVKGRFTISRDNAKNTVYLQMNSLKPEDTAVYYCNADVRVDYLSGDLDYWGQGTQVTVSS,low polyreactivity
16,QVQLVESGGGLVQAGGSLRLSCAASGITFYDYPMGWYRQAPGKERELVAAITSSGGRTYYADSVKGRFTISRDNAKNTVYLQMNSLKPEDTAVYYCAASTYPHEYDYWGQGTQVTVSS,low polyreactivity
17,QVQLVESGGGLVQAGGSLRLSCAASGITFYEYAMGWYRQAPGKEREFVAAIDDGDSSTYYADSVKGRFTISRDNAKNTVYLQMNSLKPEDTAVYYCNADPYYDYSLNWGDYWGQGTQVTVSS,low polyreactivity
18,QVQLVESGGGLVQAGGSLRLSCAASGITFYFNAMGWYRQAPGKERELVAAITFSGSSTYYADSVKGRFTISRDNAKNTVYLQMNSQKPEDSAVYYCAAYLTRYDFRWHTYYYWGLGTQVTVSS,low polyreactivity
19,QVQLVESGGGLVQAGGSLRLSCAASGITFYFNAMGWYRQAPGKERELVAANTSGGGSTYYADSVKGRFTISRDNAKNTVYLQRNSLKPEDTAVYYCAAEWSYGGMDYWGQGTQVTVSS,low polyreactivity
20,QVQLVESGGGLVQAGGSLRLSCAASGITFYGNAMGWYRQAPGKERELVAAIRRGGSTNYADSVKGRFTISRDNAKNTVYLQMNSLKPEDTALYYCAADRYGYTYRNYRVGYWGQGTQVTVSS,high polyreactivity
21,QVQLVESGGGLVQAGGSLRLSCAASGITFYGNAMGWYRQAPGKERELVAGISSGGSTSYADSVKGRFTISRDNAKNTVYLQMDSLKPEDTAVYYCAKRWYYGTRYGTSYIRDYWGQGTQVTVSS,high polyreactivity
